US20210317178A1 (D AND D PHARMATECH, published 2021)
Positions of bridges follow the written chain, without caps; N, C: chain ends. Non-standard residues stand in square brackets, D forms with d. No end group written: not given here. tri‑branched mPEG‑MAL 50 kDa = tri-branched maleimide-activated monomethoxy PEG, 50 kDa; Aib = CC(C)(N)C(=O)O

Assays:
[1] = target: human GLP-1 receptor (human, UniProt P43220 24-463); assay: cell-based or functional assay
[2] = target: human glucagon receptor (GCGR) (human, UniProt P47871 26-477); assay: cell-based or functional assay
human glucagon receptor (GCGR), sequence (P47871 26-477): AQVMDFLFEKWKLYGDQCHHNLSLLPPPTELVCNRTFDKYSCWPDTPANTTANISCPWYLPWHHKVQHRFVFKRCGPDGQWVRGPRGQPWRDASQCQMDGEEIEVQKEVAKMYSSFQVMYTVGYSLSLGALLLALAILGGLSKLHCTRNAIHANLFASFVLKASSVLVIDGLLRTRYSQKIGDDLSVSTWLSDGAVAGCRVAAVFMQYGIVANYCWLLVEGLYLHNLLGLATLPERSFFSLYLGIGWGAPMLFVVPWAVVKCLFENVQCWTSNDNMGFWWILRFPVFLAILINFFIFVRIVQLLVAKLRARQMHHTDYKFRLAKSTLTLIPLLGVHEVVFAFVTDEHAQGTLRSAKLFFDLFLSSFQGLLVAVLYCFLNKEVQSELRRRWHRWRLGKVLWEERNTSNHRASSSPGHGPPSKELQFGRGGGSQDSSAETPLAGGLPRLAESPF

EC50 of GLP-1 receptor (nM); cAMP (luciferase reporter) in HEK293/CRE-Luc cells [1] [nM] | EC50 of glucagon receptor (GCGR) (nM); cAMP in CHO-K1 cells [2] [nM] | Binder
0.13 | 38.6 | H[Aib]QGTFTSDYSKYLDEQAAKEFVQWLMNTC (lactam 16-20) [polypeptide of Example 1 (polypeptide into which cysteine was introduced, SEQ ID NO. 2)]
2.12 | 47 | H[Aib]QGTFTSDYSKYLDEQAAKEFVQWLMNTC(tri‑branched mPEG‑MAL 50 kDa) (lactam 16-20) [conjugate of Example 2 (polypeptide of SEQ ID NO. 2 bound to tri-branched mPEG-MAL, MW 50 kDa)]
